This is an account of results in patent US20170129961A1 (Amgen, published 2017).

Experiment in all cases: FACS on CHO cells, periplasmic scFv
In test [1] the target is T1, full-length mouse CD70 with C-terminal V5 tag (mouse, UniProt O55237 1-195).
T1 construct: On transfected CHO cells; also called murine CD70
T1 sequence: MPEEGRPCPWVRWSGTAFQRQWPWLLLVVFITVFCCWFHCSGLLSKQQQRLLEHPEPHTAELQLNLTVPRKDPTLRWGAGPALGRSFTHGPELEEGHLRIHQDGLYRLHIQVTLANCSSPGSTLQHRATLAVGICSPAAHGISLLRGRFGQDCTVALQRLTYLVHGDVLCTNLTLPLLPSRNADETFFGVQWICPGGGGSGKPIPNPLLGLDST
Method: (§1) All antibodies were diluted in PBS/1.5% FCS. As negative control, cells were incubated with PBS/2% FCS instead of the periplasmic extract. The samples were measured by flow cytometry.

For a further test, the target named is T2, human CD70 (human, UniProt P32970 1-193).
T2 construct: also called hu CD70; CD27L
T2 sequence: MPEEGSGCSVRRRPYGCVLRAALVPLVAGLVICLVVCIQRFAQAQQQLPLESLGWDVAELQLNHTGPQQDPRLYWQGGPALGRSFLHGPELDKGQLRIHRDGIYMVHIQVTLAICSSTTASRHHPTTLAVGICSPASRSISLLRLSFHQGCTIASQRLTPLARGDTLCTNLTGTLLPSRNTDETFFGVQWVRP

Test [2] concerns the target T3, full length human CD70 with C-terminal V5 tag (human, UniProt P32970 1-193).
T3 construct: On transfected CHO cells; also called huCD70-V5
T3 sequence: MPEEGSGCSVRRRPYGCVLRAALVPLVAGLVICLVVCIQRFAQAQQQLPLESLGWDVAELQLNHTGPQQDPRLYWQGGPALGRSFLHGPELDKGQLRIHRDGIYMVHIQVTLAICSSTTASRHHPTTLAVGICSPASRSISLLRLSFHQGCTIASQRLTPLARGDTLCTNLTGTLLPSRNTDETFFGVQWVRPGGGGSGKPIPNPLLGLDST
Method: as §1

Where a chain is given by its changes, count along the chain named.

B1: CD70-63 (scFv)
scFv: EVQLVESGGGLVKPGGSLRLSCAASGITFSTYTMNWVRQAPGKGLEWVSSISSSSGYIYYADSVKGRFTISRDNAKNSLYLQMNSLRAEDTAVYYCARGDYSNYLYFDLWGRGTLVTVSSGGGGSGGGGSGGGGSEIVLTQSPGTLSLSPGERATLSCRASQSFRSSYLAWYQQKPGQAPRLLIHGASSRATGIPDRFSGSGSGTDFTLTISRLEPEDFAVYYCQLYGSLPITFGQGTRLEIK
On to B1, for which the binding result is “no binding” in test [1] and “binds” with human CD70.

B2: CD70-48 (scFv)
scFv: EVQLLESGGGLVQPGGSLRLSCAASGFTFSSYAMSWVRQAPGKGLEWVSVISDSGGITDFADSVKGRFTISRDNSRNTLYLQMNSLRAEDTAVYFCARHDYSNYFFFDYWGQGTLVTVSSGGGGSGGGGSGGGGSDIQMTQSPSSLSASVGDRVTITCRASQGISNYLAWYQQKPGKVPKLLIYAASILQSGVPSKFSGSGSGTDFTLTISSLQPEDFAIYYCQQYFAYPITFGQGTRLEIK
notes: As m32
In the case of B2, the binding result in test [1] is “no binding”; with human CD70, “binds”.

B3: CD70-68 (scFv)
scFv: B2 scFv with G44C, Q235C
notes: As m32
Consider B3, for which the binding result is “no binding” in test [1] and “binds” with human CD70.

B4: CD70-37 (scFv)
scFv: EVQLLESGGGLVQPGGSLRLSCAASGFTFSSYAMSWVRQAPGKGLEWVSAIGDGGGYTYYADSVKGRFTISRDNSKNTLSLLMNSLRAEDTAVYYCARHDYSNYPYFDYWGQGTLVTVSSGGGGSGGGGSGGGGSEIVLTQSPGTLSLSPGERATLSCRASQGVRSSYFAWYQQKPGQAPRLLIYGASTRATGIPARFSGSGSGTDFTLTISRLEPEDFAVYYCQQYGSSPPTFGQGTKVEIK
notes: As m32
For the molecule B4, the results for the binding result (in test [1]; with human CD70) were “no binding” and “binds”, respectively.

B5: CD70-52 (scFv)
scFv: QVQLQESGPGLVKPSETLSLTCTVSGGSVSTDGYYWSWIRQPPGKGLEWIGYIYYSGSTNYNPSLKSRVTISVDTSKNQFSLKLSSVTAADTAVYYCARGIGLGFEYWGQGTLVTVSSGGGGSGGGGSGGGGSSYVLTQLSSVSVAPGQTARITCGGNNIGSKSVHWYQQKPGQAPVLVVYDDSDRPSGIPERFSGSNSGNTATLTISRVEAGDEADYYCQVWDRSSDQDVVFGGGTKLTVL
notes: As m32
In the case of B5, the binding result in test [1] was “no binding”; in the test with human CD70, “binds”.

B6: CD70-69 (scFv)
scFv: B5 scFv with G46C, S85I, G235C
notes: As m32
For B6, the binding result in test [1] was “no binding”; in the test with human CD70, “binds”.

B7: CD70-51 (scFv)
scFv: B5 scFv with S141T, Y218F
notes: As m32
With B7, the values for the binding result (in test [1]; in the test with human CD70) were “no binding” and “binds”, respectively.

B8: CD70-57 (scFv)
scFv: QVQLVESGGGVVQPGRSLRLSCAASGFTFSSYGMHWVRQAPGKGLEWVAVIWYDGSSEYYADSVKGRFTISRDNSKNTLYLQMNSLRAEDTAVYYCARDNSYNYYGMDVWGQGTTVTVSSGGGGSGGGGSGGGGSQSVLTQPPSVSGAPGQRVTISCTGSSSNIGAAYDVHWYQQFPGTAPKLLIYVNSHRPPGVPDRFSGSKSGTSASLAITGLQAEDEADYYCLSYDNSLSGSVFGGGTKLTVL
Take B8: the binding result in test [1] is “no binding”; with human CD70 it was “binds”.

B9: CD70-44 (scFv)
scFv: EVQLLESGGGLVQPGGSLRLSCAASGFTFSSYAMSWVRQAPGKGLEWVSVISDSGGITDFADSVKGRFIISRDNSRNTLYLQMNSLRAEDTAVYFCARHDYSNYFFFDYWGQGTLVTVSSGGGGSGGGGSGGGGSDIQMTQSPSSLSASVGDRVTITCRASQDISNYLNWYQQKSGKAPELLIYAASSLQSGVPSRFSGSGSGTDFTLTISSLQPEDFATYYCQQSYISPPTFGQGTKVEIK
notes: As m32
For B9, the binding result in test [1] is listed as “no binding”; with human CD70 it was “binds”.

B10: CD70-61 (scFv)
scFv: B9 scFv with I69T, V154I, D163S, S175P, E180K, Y184S, S229I, E240D
notes: As m32
As to B10, the binding result in test [1] is reported as “no binding”; with human CD70 it was “binds”.

B11: CD70-67 (scFv)
scFv: B9 scFv with G44C, Q235C
notes: As m32
With B11, the binding result was “no binding” in test [1] and “binds” with human CD70.

B12: CD70-64 (scFv)
scFv: EVQLLESGGGLVQPGGSLRLSCAASGFTFSVYAMSWVRQAPGKCLEWVSTISDSGGSTFYADSVKGRFTISRDNSKNTLYLQMNRLRAEDTAVYYCARHDYSNYAYFDYWGQGTLVTVSSGGGGSGGGGSGGGGSEIVLTQSPGTLSLSPGERATLSCRASQSVRSSYLAWYQQKPGQAPRLLIYGASSRATGIPDRFSGSGSGTDFTLTISRLEPEDFAVYYCQQYGDLPFTFGCGTKVEIK
notes: As m32
Take B12: the binding result in test [1] was “no binding”; in the test with human CD70, “binds”.

B13: CD70-62 (scFv)
scFv: EVQLVESGGGLVKPGGSLRLSCAASGFTFSSYSMNWVRQAPGKGLEWVSYISSSGGYIYYADSVKGRFTISRDNAKNSLYLQMNSLRAEDAAVYYCSRGDYSNYAYFDYWGQGTLVTVSSGGGGSGGGGSGGGGSDIQMTQSPSSLSASVGDRVTITCRASQGISNYLAWYQQKPGKVPKLLIYAASTLQSGVPSRFSGSGSGTDFTLTISSLQAEDVAVYYCQQYYSTPLTFGGGTKVEIK
notes: As m32
Turning to B13, the figures for the binding result (in test [1]; in the test with human CD70) were “no binding” and “binds”, respectively.

B14: CD70-73 (scFv)
scFv: B13 scFv with G44C, G235C
notes: As m32
Consider B14, for which the binding result in test [1] is reported as “no binding”; in the test with human CD70, “binds”.

B15: CD70-56 (scFv)
scFv: QVQLVESGGGVVQPGRSLRLSCAASGFTFSSYGMHWVRQAPGKGLEWVAVISYDGSNKYYADSVKGRFTISRDNSKNTLYLQMNSLRAEDTAVYYCARGRYYGSGSYNYGMDVWGQGTTVTVSSGGGGSGGGGSGGGGSDIQMTQSPSSLSASVGDRVTITCRASQSIFDYLNWYQQKPGKAPKLLIYAASSLQSGVPSRFSGSGFGTDFTLTISSLQPEDFATYYCQQSYSTPLTFGGGTKLEIK
notes: As m32
B15: the binding result in test [2] is listed as “no binding”; in test [1] it was “no binding”; with human CD70, “binds”.

B16: CD70-71 (scFv)
scFv: B15 scFv with G44C, G239C
notes: As m32
As for B16, the binding result in test [2] was “no binding”; in test [1], “no binding”; with human CD70 it was “binds”.

B17: CD70-59 (scFv)
scFv: QVQLQQWGAGLLKPSETLSLTCAVYDGSVSGFYWSWIRQPPGKGLEWIGEIDHSGSTNYNPSLKSRVTISVDTSKNQFSLKLSSVTAADSAVYYCARNGYSGYLFDYWGQGTLVTVSSGGGGSGGGGSGGGGSDIQMTQSPSSLSASVGDRVTITCRASQIISSYLNWYQQKPGKAPKVLIYGASSMQSGVPSRFSGSGYGTDFTLTISSLQPEDFATYYCQQSYSIPRTFGQGTKLEIK
Consider B17, for which the binding result in test [1] is “no binding”; with human CD70, “binds”.

B18: CD70-58 (scFv)
scFv: QVQLQESGPGLVKPSQTLSLTCTVSGGSISSSSYYWGWIRQPPGKGLEWIGSIYHSGGTYFNPSLKSRVTISVDTSKNQFSLKLSSVTAADTAVYYCARHYEILTGYYPDVFDIWGQGTMVTVSSGGGGSGGGGSGGGGSDIQMTQSPSSLSASVGDRVTITCRASQSISSYLNWYQQKPGKAPKLLIYAASNLQSGVSSRFSGSGSGTDFTLTISSLQPEDFATYYCQQSFSSPRTFGQGTKVEIK
For the molecule B18, the binding result in test [1] is given as “no binding”; with human CD70, “binds”.
